Measured values as given in patent publication US20250027068.

Target: pooled human IgG (human IgG1, 2, 3 and 4)

Row | Protein | Enzyme Activity Endpoint Assay: Fab′2 [ng/µL] | Enzyme Activity Endpoint Assay: Fc [ng/µL] | Enzyme Activity Endpoint Assay: IgG [ng/µL] | Enzyme Activity Endpoint Assay: scIgG [ng/µL] | Enzyme Activity Endpoint Assay (purified): Fab′2 [ng/µL] | Enzyme Activity Endpoint Assay (purified): Fc [ng/µL] | Enzyme Activity Endpoint Assay (purified): IgG [ng/µL] | Enzyme Activity Endpoint Assay (purified): scIgG [ng/µL]
1 | PRT-463 (protein) MVTSVWTKGVTPPANFRKIVDGNIAYYHAPYVANQGWYDITKTFNGKDDLLCGAATAGNMLHWWFDQNKDQIERYLKEHPEKQKINFNGEQMFDVKEAIDTKDSQTDSKLFEYFKEKAFPYLSTKHLGVFPDHVLDMFINGYRLSLTNHGPTPVKEGSKDPRGGIFDAVFTRGDQSKLLTSRHDLKNKTLKEISDLIKQELTEGKALGLSHTYANVRINHVINLWGADFDSEGNLKAIYVTDSDSNASIGMKKYFVGVNSAGKVAISAKEIKEDNIGAQVLGLFTLSTGQDIWNQTNLEHHHHHH | 821 | 259 | 0 | 0 |  |  |  | 
2 | PRT-461 (protein) MVTSVWTKGVTPPTDFRKIVDGNIAYYHAPYKAGQGWYDITKTFNGKDDLLCGAATAGNMLHWWFDQNKDQIERYLKEHPEKQKINFNGEQMFDVKEAIDTKDSQTDSKLFEYFKEKAFPYLSTKHLGVFPDHVLDMFINGYRLSLTNHGPTPVKEGSKDPRGGIFDAVFTRGDQSKLLTSRHDFKEKTLKEISDLIKQELTEGKALGLSHTYANVRINHVINLWGADFDSEGNLKAIYVTDSDSNASIGMKKYFVGVNSAGKVAISAKEIKEDNIGAQVLGLFTLSTGQDIWNQTNLEHHHHHH |  |  |  |  | 399 | 309 | 154 | 298
3 | PRT-495 (protein) MVTSVWTKGVTPPTDFIKGEDVFHAPYKAGQGWYDITKAFDGGDDLLCGAATAGNMLHWWFDQNKEYIEAYLKKHPEKQKIMFGDQELLDVRKAINTKGSQKNSELFNYFRDKAFPNLSARRLGVMPDLVLDMFINGYYLNVTKTQTTDVNRTYQEKDKRGGIFDAVFTRGDQSKLLTSRHDFKEKGLKEISDLIKQELTEGKALGLSHTYANVRINHVINLWGADFDSDGNLKAIYVTDSDSNASIGMKKYFVGVNSAGKVAISAKEIKEDNIGAQVLGLFTLSTGQDIWNQTNLEHHHHHH |  |  |  |  | 0 | 37 | 0 | 0
4 | PRT-490 (protein) MVTSVWTKGVTPPTDFIYGEDVLHAPYKAGQGWYDITKTFNGKDNLLCGAATAGNMLHWWFDQNKEQIENYLKKHPEKQKIIFNNQELFDLKAAIDTKDSQLDSKLFEYFKEKAFPYLSTKHLGVFPDHVIDMFINGYRLSLTNHGPTPVKRGSKDKRGGIFDAVFTRGVQSKLLTNRHDFKEKTLKEISDLIKQELTEGKALGISHTYANVRINHVINLWGADFDAEGNLEAIYVTDSDTNASIGMKKYFVGVNSNGKVAISAKEIEEDNIGAQVLGLFTLSTGQDIWNQTNLEHHHHHH |  |  |  |  | 73 | 243 | 166 | 875
5 | PRT-516 (protein) MITSVWTKGVTPPTDFIKGEDVFHAPYKAGQGWYDITKAFDGGDDLLCGAATAGNMLHWWFDQNKEEIEAYLKKHPEKQKIMFGDQELLDVRKVINTKDSQTNSALFNYFKDKAFPNLSARRLGVMPDLVLDMFINGYYLNVYKTQTTDVNRTYQTKDRRGGIFDAVFTRGDQSKLLTERHDLKNKTLNEISQLIKQELTEGKALGLSHTYANVRINHVINLWGADFDAEGNLEAIYVTDSDSNASIGMKKYFVGVNSAGKVAISAKEIKEDNIGAQVLGLFTLSTGQDIWNQTNLEHHHHHH |  |  |  |  | 16 | 23 | 0 | 0
6 | PRT-509 (protein) MITSVWTKGVTPPTDFRKIVDGNIAYYHAPYKAGQGWYDITKTFNGKDDLLCGAATAGNMLHWWFDQNKEEIEAYLKKHPEKQKIMFGDQELLDVRKVINTKDSQTNSALFNYFKDKAFPNLSARRLGVMPDLVLDMFINGYYLNVYKTQTTDVNRTYQTKDRRGGIFDAVFTRGDQSKLLTERHDFKEKTLKEISDLIKQELTEGKALGLSHTYANVRINHVINLWGADFDSNGNLEAIYVTDSDSNASIGMKKYFVGVNSAGKVAISAKEIKEDNIGAQVLGLFTLSTGQDIWNQTNLEHHHHHH |  |  |  |  | 21 | 26 | 0 | 0
7 | PRT-497 (protein) MVTSVWTKGVTPPTDFRKIVDGNIAYYHAPYKAGQGWYDITKTFNGKDDLLCGAATAGNMLHWWFDQNKEYIEAYLKKHPEKQKIMFGDQELLDVRKAINTKGSQKNSELFNYFRDKAFPNLSARRLGVMPDLVLDMFINGYYLNVTKTQTTDVNRTYQEKDKRGGIFDAVFTRGDQSKLLTSRHDFKEKGLKEISDLIKQELTEGKALGLSHTYANVRINHVINLWGADFDSDGNLKAIYVTDSDSNASIGMKKYFVGVNSAGKVAISAKEIKEDNIGAQVLGLFTLSTGQDIWNQTNLEHHHHHH |  |  |  |  | 0 | 0 | 0 | 0
8 | PRT-465 (protein) MVTSVWTKGVTPPANFTQGEDVFHAPYVANQGWYDITKTFNGKDDLLCGAATAGNMLHWWFDQNKDQIERYLKEHPEKQKINFNGEQMFDVKEAIDTKDSQTDSKLFEYFKEKAFPYLSTKHLGVFPDHVLDMFINGYRLSLTNHGPTPVKEGSKDPRGGIFDAVFTRGDQSKLLTSRHDLKNKTLKEISDLIKQELTEGKALGLSHTYANVRINHVINLWGADFDSEGNLKAIYVTDSDSNASIGMKKYFVGVNSAGKVAISAKEIKEDNIGAQVLGLFTLSTGQDIWNQTNLEHHHHHH | 504 | 296 | 111 | 501 |  |  |  | 
9 | PRT-457 (protein) MVTSVWTKGVTPPTDFIKGEDVFHAPYKAGQGWYDITKAFDGGDDLLCGAATAGNMLHWWFDQNKDQIEAYLKEHPEKQKINFNGEQMFDVKEAIDTKDDQTNSELFNYFKEKAFPYLSTKHLGVFPDHVLDMFINGYRLSLTNHGPTPVKRQEKDPRGGIFDAVFGRGDQTKLLTSRHDLKNKTLKEISDLIKQELTEGKALALSHTYANVRINHVINLWGADFDSNGNLEAIYVTDSDSNASIGMKKYFVGVNSAGKVAISAKEIEDDNIGAQVLGLFTLSTGQKIWNKTNLEHHHHHH |  |  |  |  | 450 | 379 | 138 | 337
10 | PRT-469 (protein) MVTSVWTKGVTPPTDFIKGEDVFHAPYKAGQGWYDITKAFDGGDDLLCGAATAGNMLHWWFDQNKDQIERYLKEHPEKQKINFNGEQMFDVKEAIDTKDSQTNSELFNYFKEKAFPYLSTKHLGVFPDHVLDMFINGYRLSLTNHGPTPVKRQEKDPRGGIFDAVFGRGDQTKLLTSRHDLKNKTLKEISDLIKQELTEGKALGLSHTYANVRINHVINLWGADFDSEGNLKAIYVTDSDSNASIGMKKYFVGVNSAGKVAISAKEIKEDNIGAQVLGLFTLSTGQKIWNKTNLEHHHHHH |  |  |  |  | 41 | 139 | 50 | 248
11 | PRT-474 (protein) MVTSVWTKGVTPPTDFRKIVDGNIAYYHAPYKAGQGWYDITKAFDGGDDLLCGAATAGNMLHWWFDQNKEQIENYLKKHPEKQKINFNGEQMFDVKEAIDTKDSQTNSELFNYFKEKAFPYLSTKHLGVFPDHVIDMFINGYRLSLTNHGPTPVKRGSKDPRGGIFDAVFTRGDQSKLLTNRHDLKNKTLKEISDLIKQELTEGKALGISHTYANVRINHVINLWGADFDAEGNLEAIYVTDSDSNASIGMKKYFVGVNSNGKVAISAKEIEEDNIGAQVLGLFTLSTGQDIWNQTNLEHHHHHH | 462 | 156 | 0 | 229 |  |  |  | 
12 | PRT-475 (protein) MVTSVWTKGVTPPTNFRKIVDGNIAYYHAPYVANQGWYDITKTFNGKDDLLCGAATAGNMLHWWFDQNKEQIENYLKKHPEKQKINFNGEQMFDVKEAIDTKDSQLDSKLFEYFKEKAFPYLSTKHLGVFPDHVIDMFINGYRLSLTNHGPTPVKRGSKDPRGGIFDAVFTRGDQSKLLTNRHDLKNKTLKEISDLIKQELTEGKALGISHTYANVRINHVINLWGADFDAEGNLEAIYVTDSDSNASIGMKKYFVGVNSNGKVAISAKEIEEDNIGAQVLGLFTLSTGQDIWNQTNLEHHHHHH |  |  |  |  | 1150 | 413 | 0 | 0
13 | PRT-449 (protein) MVTSVWTKGVTPPTDFRKIVDGNIAYYHAPYKAGQGWYDITKTFNGKDDLLCGAATAGNMLHWWFDQNKDQIEAYLKEHPEKQKINFNGEQMFDVKEAIDTKDDQTNSKLFEYFKEKAFPYLSTKHLGVFPDHVLDMFINGYRLSLTNHGPTPVKEGSKDPRGGIFDAVFTRGDQSKLLTSRHDFKEKTLKEISDLIKQELTEGKALALSHTYANVRINHVINLWGADFDSNGNLEAIYVTDSDSNASIGMKKYFVGVNSAGKVAISAKEIEDDNIGAQVLGLFTLSTGQDIWNQTNLEHHHHHH |  |  |  |  | 1100 | 365 | 0 | 0
14 | PRT-481 (protein) MVTSVWTKGVTPPTDFIYGEDVLHAPYKAGQGWYDITKAFDGGDDLLCGAATAGNMLHWWFDQNKEQIENYLKKHPEKQKINFNGEQMFDVKEAIDTKDSQTNSELFNYFKEKAFPYLSTKHLGVFPDHVIDMFINGYRLSLTNHGPTPVKRQEKDPRGGIFDAVFGRGDQTKLLTNRHDLKNKTLKEISDLIKQELTEGKALGISHTYANVRINHVINLWGADFDAEGNLEAIYVTDSDSNASIGMKKYFVGVNSNGKVAISAKEIEEDNIGAQVLGLFTLSTGQKIWNKTNLEHHHHHH | 1380 | 429 | 65 | 0 |  |  |  | 
